In PMC9143595:

B1: RBD-1C (CoV2-RBD-1) (ssDNA)
DNA: CAGCACCGACCTTGTGCTTTGGGAGTGCTGGTCCAAGGGCGTTAATGGACA
modifications: 5'-amino-modifier C6
B2: RBD-1CM1 (ssDNA)
DNA: CAGCACCGACCTTGTGCTTTGGGAGTGCTGGTCTAAGGGCGTTAATAGACA
modifications: 5'-amino-modifier C6
B3: RBD-1CM2 (ssDNA)
DNA: CAGCACCGACCTTGTGCTTTGGGAGTGCTGGTCCAAGGGCCTTGATGGACA
modifications: 5'-amino-modifier C6

Each binder was assayed against SARS-CoV-2 spike protein S1 subunit (SARS-CoV-2, UniProt P0DTC2 14-685) (assay: QCM). Conditions: protein: commercial.

Point of comparison: B3, Ka 1.2 10^5 M-1. Against it:
- B1 — lower, 1 10^5 M-1
- B2 — the same, 1.2 10^5 M-1
